Measurements from PMC5414174, “DNA replication licensing factor Cdc6 and Plk4 kinase antagonistically regulate centrosome duplication via Sas-6” (Nature Communications, 2017).

B1: GFP-tagged Cdc6 WT [human] / Myc-tagged Sas-6 [human] (parent)
chain 1: MPQTRSQAQATISFPKRKLSRALNKAKNSSDAKLEPTNVQTVTCSPRVKALPLSPRKRLGDDNLCNTPHLPPCSPPKQGKKENGPPHSHTLKGRRLVFDNQLTIKSPSKRELAKVHQNKILSSVRKSQEITTNSEQRCPLKKESACVRLFKQEGTCYQQAKLVLNTAVPDRLPAREREMDVIRNFLREHICGKKAGSLYLSGAPGTGKTACLSRILQDLKKELKGFKTIMLNCMSLRTAQAVFPAIAQEICQEEVSRPAGKDMMRKLEKHMTAEKGPMIVLVLDEMDQLDSKGQDVLYTLFEWPWLSNSHLVLIGIANTLDLTDRILPRLQAREKCKPQLLNFPPYTRNQIVTILQDRLNQVSRDQVLDNAAVQFCARKVSAVSGDVRKALDVCRRAIEIVESDVKSQTILKPLSECKSPSEPLIPKRVGLIHISQVISEVDGNRMTLSQEGAQDSFPLQQKILVCSLMLLIRQLKIKEVTLGKLYEAYSKVCRKQQVAAVDQSECLSLSGLLEARGILGLKRNKETRLTKVFFKIEEKEIEHALKDKALIGNILATGLP
chain 2: MSQVLFHQLVPLQVKCKDCEERRVSIRMSIELQSVSNPVHRKDLVIRLTDDTDPFFLYNLVISEEDFQSLKFQQGLLVDFLAFPQKFIDLLQQCTQEHAKEIPRFLLQLVSPAAILDNSPAFLNVVETNPFKHLTHLSLKLLPGNDVEIKKFLAGCLKCSKEEKLSLMQSLDDATKQLDFTRKTLAEKKQELDKLRNEWASHTAALTNKHSQELTNEKEKALQAQVQYQQQHEQQKKDLEILHQQNIHQLQNRLSELEAANKDLTERKYKGDSTIRELKAKLSGVEEELQRTKQEVLSLRRENSTLDVECHEKEKHVNQLQTKVAVLEQEIKDKDQLVLRTKEAFDTIQEQKVVLEENGEKNQVQLGKLEATIKSLSAELLKANEIIKKLQGDLKTLMGKLKLKNTVTIQQEKLLAEKEEKLQKEQKELQDVGQSLRIKEQEVCKLQEQLEATVKKLEESKQLLKNNEKLITWLNKELNENQLVRKQDVLGPSTTPPAHSSSNTIRSGISPNLNVVDGRLTYPTCGIGYPVSSAFAFQNTFPHSISAKNTSHPGSGTKVQFNLQFTKPNASLGDVQSGATISMPCSTDKENGENVGLESKYLKKREDSIPLRGLSQNLFSNSDHQRDGTLGALHTSSKPTALPSASSAYFPGQLPNS

Variants of: B1
Experiment: co-immunoprecipitation (anti-GFP IP, western blot quantified by ImageJ)
Settings: with Myc-tagged Sas-6 [human]; HEK293 cells co-transfected; three independent experiments; means ± s.d.; read off a plot

Point of comparison: chain 1 MPQTRSQAQATISFPKRKLSRALNKAKNSDDAKLEPTNVQTVTCSPRVKALPLSPRKRLGDDNLCNTPHLPPCSPPKQGKKENGPPHSHTLKGRRLVFDNQLTIKSPSKRELAKVHQNKILSSVRKSQEITTNSEQRCPLKKESACVRLFKQEGTCYQQAKLVLNTAVPDRLPAREREMDVIRNFLREHICGKKAGSLYLSGAPGTGKTACLSRILQDLKKELKGFKTIMLNCMSLRTAQAVFPAIAQEICQEEVSRPAGKDMMRKLEKHMTAEKGPMIVLVLDEMDQLDSKGQDVLYTLFEWPWLSNSHLVLIGIANTLDLTDRILPRLQAREKCKPQLLNFPPYTRNQIVTILQDRLNQVSRDQVLDNAAVQFCARKVSAVSGDVRKALDVCRRAIEIVESDVKSQTILKPLSECKSPSEPLIPKRVGLIHISQVISEVDGNRMTLSQEGAQDSFPLQQKILVCSLMLLIRQLKIKEVTLGKLYEAYSKVCRKQQVAAVDQSECLSLSGLLEARGILGLKRNKEDRLTKVFFKIEEKEIEHALKDKALIGNILATGLP [chain 1 S30D T527D], ratio to parent 0.42. Against it:
- chain 1 MPQTRSQAQATISFPKRKLSRALNKAKNSADAKLEPTNVQTVTCSPRVKALPLSPRKRLGDDNLCNTPHLPPCSPPKQGKKENGPPHSHTLKGRRLVFDNQLTIKSPSKRELAKVHQNKILSSVRKSQEITTNSEQRCPLKKESACVRLFKQEGTCYQQAKLVLNTAVPDRLPAREREMDVIRNFLREHICGKKAGSLYLSGAPGTGKTACLSRILQDLKKELKGFKTIMLNCMSLRTAQAVFPAIAQEICQEEVSRPAGKDMMRKLEKHMTAEKGPMIVLVLDEMDQLDSKGQDVLYTLFEWPWLSNSHLVLIGIANTLDLTDRILPRLQAREKCKPQLLNFPPYTRNQIVTILQDRLNQVSRDQVLDNAAVQFCARKVSAVSGDVRKALDVCRRAIEIVESDVKSQTILKPLSECKSPSEPLIPKRVGLIHISQVISEVDGNRMTLSQEGAQDSFPLQQKILVCSLMLLIRQLKIKEVTLGKLYEAYSKVCRKQQVAAVDQSECLSLSGLLEARGILGLKRNKEARLTKVFFKIEEKEIEHALKDKALIGNILATGLP [chain 1 S30A T527A] — higher, 1.7
